Consider two molecules from paper PMC13722417 (2026).

Values joined by “and” are separate entries in the source; they are usually repeats but may differ in a detail not shown here. Equal values may be shown once.

B2: TIE1 21-760 (protein)
chain: AAVDLTLLANLRLTDPQRFFLTCVSGEAGAGRGSDAWGPPLLLEKDDRIVRTPPGPPLRLARNGSHQVTLRGFSKPSDLVGVFSCVGGAGARRTRVIYVHNSPGAHLLPDKVTHTVNKGDTAVLSARVHKEKQTDVIWKSNGSYFYTLDWHEAQDGRFLLQLPNVQPPSSGIYSATYLEASPLGSAFFRLIVRGCGAGRWGPGCTKECPGCLHGGVCHDHDGECVCPPGFTGTRCEQACREGRFGQSCQEQCPGISGCRGLTFCLPDPYGCSCGSGWRGSQCQEACAPGHFGADCRLQCQCQNGGTCDRFSGCVCPSGWHGVHCEKSDRIPQILNMASELEFNLETMPRINCAAAGNPFPVRGSIELRKPDGTVLLSTKAIVEPEKTTAEFEVPRLVLADSGFWECRVSTSGGQDSRRFKVNVKVPPVPLAAPRLLTKQSRQLVVSPLVSFSGDGPISTVRLHYRPQDSTMDWSTIVVDPSENVTLMNLRPKTGYSVRVQLSRPGEGGEGAWGPPTLMTTDCPEPLLQPWLEGWHVEGTDRLRVSWSLPLVPGPLVGDGFLLRLWDGTRGQERRENVSSPQARTALLTGLTPGTHYQLDVQLYHCTLLGPASPPAHVLLPPSGPPAPRHLHAQALSDSEIQLTWKHPEALPGPISKYVVEVQVAGGAGDPLWIDVDRPEETSTIIRGLNASTRYLFRMRASIQGLGDWSNTVEESTLGNGLQAEGPVQESRAAEEGLDQQ

The target of experiment [1] is B2. Put plainly: SPR. Background: In SPR one partner is held on a chip, and binding of the other changes the refractive index at the surface.
Experiment [2] has as its target SVEP1 919-3571 (Homo sapiens, UniProt Q4LDE5, ANG2 present). The experiment can be described thus: ELISA. On the technique in general: In an ELISA, binding on a coated surface is turned into a signal by an enzyme label.
The target of experiment [3] is SVEP1 919-3571 (Homo sapiens, UniProt Q4LDE5). The experiment can be described thus: ELISA.
The target of experiment [4] is SVEP1 919-3571 (Homo sapiens, UniProt Q4LDE5, ANG1 present). Put plainly: ELISA.

B1: SVEP1 2261-2890 (protein)
chain: PLDCGKPPPIQNGFMKGENFEVGSKVQFFCNEGYELVGDSSWTCQKSGKWNKKSNPKCMPAKCPEPPLLENQLVLKELTTEVGVVTFSCKEGHVLQGPSVLKCLPSQQWNDSFPVCKIVLCTPPPLISFGVPIPSSALHFGSTVKYSCVGGFFLRGNSTTLCQPDGTWSSPLPECVPVECPQPEEIPNGIIDVQGLAYLSTALYTCKPGFELVGNTTTLCGENGHWLGGKPTCKAIECLKPKEILNGKFSYTDLHYGQTVTYSCNRGFRLEGPSALTCLETGDWDVDAPSCNAIHCDSPQPIENGFVEGADYSYGAIIIYSCFPGFQVAGHAMQTCEESGWSSSIPTCMPIDCGLPPHIDFGDCTKLKDDQGYFEQEDDMMEVPYVTPHPPYHLGAVAKTWENTKESPATHSSNFLYGTMVSYTCNPGYELLGNPVLICQEDGTWNGSAPSCISIECDLPTAPENGFLRFTETSMGSAVQYSCKPGHILAGSDLRLCLENRKWSGASPRCEAISCKKPNPVMNGSIKGSNYTYLSTLYYECDPGYVLNGTERRTCQDDKNWDEDEPICIPVDCSSPPVSANGQVRGDEYTFQKEIEYTCNEGFLLEGARSRVCLANGSWSGATPDCVPVR
B1: in experiment [1], binding was characterised by a dissociation constant (Kd) of 62.5 nM.

In the case of B2, the Kd was 55.6 nM in experiment [2]; 189 nM and 147 nM in experiment [3]; 82.4 nM in experiment [4].

For orientation: Kd means the constant that tells how readily two partners part at equilibrium. Lower therefore signals a tighter complex.
